{
  "source": "the RNAGym collection of RNA variant scans (doi:10.7554/elife.90254)",
  "parents": {"B1": {"name": "OR4K15 (parent)", "chain": "GUUAACGGUCAUAGGCCAUGGAAACUAGGAGCACCAUUUCGCUGCCAGUGAAGAAAUGAACAAAGAAAAUCUGGGCCAGGCAGGCAUCAAAAGAAAUAGUCUUGCGCUCAACCAGAAAGUCUGUAAUCAUUUUAAGGGUA"}},
  "data": [
    {"variants_of": "B1", "test": "self-cleavage, relative activity (ratio to wild type); higher = more cleavage; in vitro, sequencing; the parent is a self-cleaving ribozyme", "values": [
      {"variant": "A117U A135G", "self-cleavage": 0.7},
      {"variant": "A116C U127C", "self-cleavage": 0.03},
      {"variant": "A117G A134G", "self-cleavage": 0.61},
      {"variant": "A116U A129U", "self-cleavage": 0.29},
      {"variant": "C113U", "self-cleavage": 0.08},
      {"variant": "C113A", "self-cleavage": 0.03},
      {"variant": "C113G", "self-cleavage": 0.01},
      {"variant": "A118G A134U", "self-cleavage": 1.03},
      {"variant": "C121A G137A", "self-cleavage": 1.87},
      {"variant": "A114U U132C", "self-cleavage": 0.02},
      {"variant": "A114U U132A", "self-cleavage": 0.08},
      {"variant": "A129G U139C", "self-cleavage": 0.85},
      {"variant": "A129G U139A", "self-cleavage": 0.81},
      {"variant": "A111G G138U", "self-cleavage": 0.01},
      {"variant": "A126G A135C", "self-cleavage": 0.84},
      {"variant": "A125U A126G", "self-cleavage": 1.04},
      {"variant": "G115A C128U", "self-cleavage": 0.06},
      {"variant": "G119C", "self-cleavage": 1.04},
      {"variant": "G119A", "self-cleavage": 2.29},
      {"variant": "G119U", "self-cleavage": 1.82},
      {"variant": "A125G U132A", "self-cleavage": 0.32},
      {"variant": "A125G U132C", "self-cleavage": 0.52},
      {"variant": "U127C A140U", "self-cleavage": 1.33},
      {"variant": "A116U", "self-cleavage": 0.23},
      {"variant": "A116C", "self-cleavage": 0.13},
      {"variant": "A116G", "self-cleavage": 0.47},
      {"variant": "A111G U124G", "self-cleavage": 0.01},
      {"variant": "A114G U133C", "self-cleavage": 0.12},
      {"variant": "U122G A129U", "self-cleavage": 1.75},
      {"variant": "A126U U132C", "self-cleavage": 1.21},
      {"variant": "A126G U131G", "self-cleavage": 1.23},
      {"variant": "A114U U124G", "self-cleavage": 0.06},
      {"variant": "A116G A140C", "self-cleavage": 0.63},
      {"variant": "A118C U130C", "self-cleavage": 0.93},
      {"variant": "A110U U131C", "self-cleavage": 0.65},
      {"variant": "A129G G137C", "self-cleavage": 1.54},
      {"variant": "C128A A134G", "self-cleavage": 1.63},
      {"variant": "U127A U130A", "self-cleavage": 1.95},
      {"variant": "A116U U133C", "self-cleavage": 0.21},
      {"variant": "A118C U132C", "self-cleavage": 0.57},
      {"variant": "A111U U124C", "self-cleavage": 0.08},
      {"variant": "A129G A135U", "self-cleavage": 1.54},
      {"variant": "A129G A135G", "self-cleavage": 1.08},
      {"variant": "A118G A125U", "self-cleavage": 1.22},
      {"variant": "A118G A125G", "self-cleavage": 0.1},
      {"variant": "A126G U132C", "self-cleavage": 1.07},
      {"variant": "A125G A126G", "self-cleavage": 0.68},
      {"variant": "A126G A134G", "self-cleavage": 1.17},
      {"variant": "U122C U124C", "self-cleavage": 0.67},
      {"variant": "A114C U122A", "self-cleavage": 0.04},
      {"variant": "A114C U122G", "self-cleavage": 0.01},
      {"variant": "A114G G138C", "self-cleavage": 0.31},
      {"variant": "U127A U131C", "self-cleavage": 2.45},
      {"variant": "A111G U139C", "self-cleavage": 0.01},
      {"variant": "A111G U139G", "self-cleavage": 0.02},
      {"variant": "A111G A126U", "self-cleavage": 0.01},
      {"variant": "A116G U131G", "self-cleavage": 0.3},
      {"variant": "A116G U131C", "self-cleavage": 0.27},
      {"variant": "U124C A125G", "self-cleavage": 1.32},
      {"variant": "A116C A117G", "self-cleavage": 0.04},
      {"variant": "A129G A140U", "self-cleavage": 2.17},
      {"variant": "A114G A117G", "self-cleavage": 0.37},
      {"variant": "A114G A135G", "self-cleavage": 0.93},
      {"variant": "A114G A135U", "self-cleavage": 0.15},
      {"variant": "C113G U131C", "self-cleavage": 0},
      {"variant": "U122A U132C", "self-cleavage": 2.13},
      {"variant": "A126U U131C", "self-cleavage": 1.84},
      {"variant": "A117U U131G", "self-cleavage": 1.38},
      {"variant": "A117U U131C", "self-cleavage": 1.01},
      {"variant": "U124A U127C", "self-cleavage": 0.65},
      {"variant": "A110U U139C", "self-cleavage": 0.59},
      {"variant": "U124C U132C", "self-cleavage": 1.13},
      {"variant": "U122C A134U", "self-cleavage": 1.75},
      {"variant": "A117U A126G", "self-cleavage": 0.89},
      {"variant": "A118G U120G", "self-cleavage": 0.59},
      {"variant": "A118G U120A", "self-cleavage": 2.61},
      {"variant": "C112G U122A", "self-cleavage": 0.05},
      {"variant": "C113A A114G", "self-cleavage": 0.01},
      {"variant": "A118G U122A", "self-cleavage": 0.79},
      {"variant": "A129U A135U", "self-cleavage": 0.42},
      {"variant": "U127A A140U", "self-cleavage": 1.25},
      {"variant": "A111G A140G", "self-cleavage": 0},
      {"variant": "A117G A118G", "self-cleavage": 0.59},
      {"variant": "A117G A118U", "self-cleavage": 1.72},
      {"variant": "C112A A125G", "self-cleavage": 0.01},
      {"variant": "U120C G138U", "self-cleavage": 2.11},
      {"variant": "C112U A116G", "self-cleavage": 0},
      {"variant": "A111G U120C", "self-cleavage": 0.01},
      {"variant": "U122A A129G", "self-cleavage": 1.38},
      {"variant": "A114U A125G", "self-cleavage": 0},
      {"variant": "A129U", "self-cleavage": 0.65},
      {"variant": "A129G", "self-cleavage": 0.93},
      {"variant": "A129C", "self-cleavage": 0.97},
      {"variant": "A125U U127C", "self-cleavage": 1.28},
      {"variant": "A114U U127C", "self-cleavage": 0.03},
      {"variant": "U127C U131C", "self-cleavage": 0.51},
      {"variant": "A125G A129U", "self-cleavage": 0.01},
      {"variant": "A114G A129U", "self-cleavage": 0.13},
      {"variant": "A114G A129G", "self-cleavage": 0.07},
      {"variant": "U120C A126U", "self-cleavage": 0.57},
      {"variant": "A117G G138C", "self-cleavage": 2.13},
      {"variant": "A111U A126C", "self-cleavage": 0.06},
      {"variant": "G115A A118G", "self-cleavage": 0.04},
      {"variant": "C112G U124C", "self-cleavage": 0},
      {"variant": "A118U U120A", "self-cleavage": 1.68},
      {"variant": "U124A U139C", "self-cleavage": 1.26},
      {"variant": "A116G A135G", "self-cleavage": 0.5},
      {"variant": "A116G U139C", "self-cleavage": 1.17},
      {"variant": "C112U U122A", "self-cleavage": 0.01},
      {"variant": "U124A U132C", "self-cleavage": 0.13},
      {"variant": "A117G U122C", "self-cleavage": 1.05},
      {"variant": "U120G U139A", "self-cleavage": 1.61},
      {"variant": "A116G A134C", "self-cleavage": 0.7},
      {"variant": "A116G A134G", "self-cleavage": 0.59},
      {"variant": "A111G U122C", "self-cleavage": 0.01},
      {"variant": "A116U U122C", "self-cleavage": 0.21},
      {"variant": "G123U U130C", "self-cleavage": 0.44},
      {"variant": "C128A U139C", "self-cleavage": 1.05},
      {"variant": "A117G A126G", "self-cleavage": 1.27},
      {"variant": "A118G G137A", "self-cleavage": 0.86},
      {"variant": "A116U U131C", "self-cleavage": 0.11},
      {"variant": "A125G U127A", "self-cleavage": 1.11},
      {"variant": "A125G U127C", "self-cleavage": 0.27},
      {"variant": "U124C U131C", "self-cleavage": 0.8},
      {"variant": "U122C A135U", "self-cleavage": 1.06},
      {"variant": "U122C A135G", "self-cleavage": 1.24},
      {"variant": "U122C C128A", "self-cleavage": 0.38},
      {"variant": "U120C A135C", "self-cleavage": 1.51},
      {"variant": "A118U U139A", "self-cleavage": 0.6},
      {"variant": "A114G U131C", "self-cleavage": 0.15},
      {"variant": "U130A U132C", "self-cleavage": 1.42},
      {"variant": "A129G A134G", "self-cleavage": 1.15},
      {"variant": "A129G A134U", "self-cleavage": 1.02},
      {"variant": "A114G U130C", "self-cleavage": 0.38},
      {"variant": "U122A U133A", "self-cleavage": 1.43},
      {"variant": "U122A U133C", "self-cleavage": 2.07},
      {"variant": "U120C G136A", "self-cleavage": 1.65},
      {"variant": "G115A A134G", "self-cleavage": 0.12},
      {"variant": "U122C U133A", "self-cleavage": 0.52},
      {"variant": "U122C U133C", "self-cleavage": 2.05},
      {"variant": "C113U U132A", "self-cleavage": 0.06},
      {"variant": "C113A U120C", "self-cleavage": 0.02},
      {"variant": "U120C U122A", "self-cleavage": 0.26},
      {"variant": "U120C U122G", "self-cleavage": 2.61},
      {"variant": "A114G G123A", "self-cleavage": 0.12},
      {"variant": "A126C U130C", "self-cleavage": 0.47},
      {"variant": "A111C A140G", "self-cleavage": 0.01},
      {"variant": "A114G U132A", "self-cleavage": 0.7},
      {"variant": "A114G U132C", "self-cleavage": 0.24},
      {"variant": "U127C A129C", "self-cleavage": 0.21},
      {"variant": "U122C U132A", "self-cleavage": 0.43},
      {"variant": "U122C U132C", "self-cleavage": 0.49},
      {"variant": "A116G G138A", "self-cleavage": 0.8},
      {"variant": "U120A A126G", "self-cleavage": 1.64},
      {"variant": "U120C C128A", "self-cleavage": 0.69},
      {"variant": "A114G A126U", "self-cleavage": 0.46},
      {"variant": "A114G A126G", "self-cleavage": 0.28},
      {"variant": "C112U A140U", "self-cleavage": 0.01},
      {"variant": "A114U U130C", "self-cleavage": 0.01},
      {"variant": "U122C G138U", "self-cleavage": 1.37},
      {"variant": "G115A U120C", "self-cleavage": 0.03},
      {"variant": "U127C A134U", "self-cleavage": 1.36},
      {"variant": "A125U A140G", "self-cleavage": 1.42},
      {"variant": "A116G A126U", "self-cleavage": 1.04},
      {"variant": "A116U U120C", "self-cleavage": 0.15},
      {"variant": "A111U U139A", "self-cleavage": 0.16},
      {"variant": "U124C A140G", "self-cleavage": 0.57}
    ]}
  ]
}
